± gives the half width of the 95% confidence interval.
How the values were obtained:
[1] = folding stability dG unfold from chymotrypsin proteolysis; higher = more stable
Method in brief: (§1)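 Digests were run with trypsin and chymotrypsin at 11 concentrations in threefold dilutions, plus a no-protease condition, on designed mini-proteins in a PA-tagged cDNA display construct. The mini-proteins were under 80 residues, had no cysteine, and were kept only when AlphaFold2 dimer inter-PAE was above 15. After sequencing, Bayesian fitting of the counts gave K50, from which unfolding free energy was derived against a sequence-predicted unfolded-state K50 and a shared folded-state K50, per protease or combined.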

[2] = folding stability dG unfold (combined trypsin and chymotrypsin); higher = more stable
Method in brief: as §1

[3] = folding stability dG unfold from trypsin proteolysis; higher = more stable
Method in brief: as §1

Sequence | folding stability dG unfold [1] [kcal/mol] | folding stability dG unfold [2] [kcal/mol] | folding stability dG unfold [3] [kcal/mol]
SAGGSAGGSAKVTYTENSVTIHAKVPEKPLKIEIPNTGKVVTIDLDKEVTVTFPVPKPPDESAGGSAGGSAG [r3_185_TrMRF] | -0.454 ± 0.1 | -0.624 ± 0.17 | -0.786 ± 0.07
SAGGSAGGSAKVYVNPDNNKVAVVLPPPGDSYLVLLFDPETGEVRLIEAPPEEVEELLKKGSAGGSAGGSAG [r3_162_TrMRF] | 1.25 ± 0.097 | 0.845 ± 0.14 | 0.618 ± 0.077
SAGGSAGGSAKWIYIMLPFPEGQKVEIEYPNGRKHSYEQTPDGMLMIRVRRPNAPIKIKIKSAGGSAGGSAG [r3_334_TrROS] | 2.72 ± 0.23 | 2.4 ± 0.25 | 1.9 ± 0.13
SAGGSAGGSALEIPFPIKDVKWERNPDGSRTRTFYLKNGWRASLIFNPKNGQMQIDIEPLDSAGGSAGGSAG [r3_438_TrROS] | 1.57 ± 0.12 | 1.81 ± 0.17 | 1.8 ± 0.073
SAGGSAGGSALEVPSNYLVEVRFPNETRLIPVEDLDAFFEAYPDVPWTDIRVLDPKTGKPISAGGSAGGSAG [r3_134_TrMRF] | 1.923 ± 0.0098 | 2.19 ± 0.032 | 2.47 ± 0.04
SAGGSAGGSALKNAPGPDPALLKPRPVLVIPIPKDIPLEEAEALAEIFRKLYPDVPVVLDVEGGSAGGSAGG [r6_299_TrMRF] | 1.07 ± 0.072 | 0.971 ± 0.05 | 0.826 ± 0.046
SAGGSAGGSALPTSPTYAVVKVPDKYYIVKTKVGDIIFIPDENGIPVPVKVEPFYPIAPEALSAGGSAGGSA [r18_244_TrMRF] | -0.515 ± 0.4 | -0.258 ± 0.18 | -0.297 ± 0.16
SAGGSAGGSAMDAEEIADMIKEILRKQFPNVKITEITVERRPPGNYYVEARVPDGNQRTIPISAGGSAGGSA [r18_423_TrROS] | 0.286 ± 0.059 | 0.115 ± 0.061 | -0.483 ± 0.15
SAGGSAGGSAMEINEIVKETAKKGKNLTITVKLPDGSTVTITVTPDEDVPEDLEVLEVTVKSAGGSAGGSAG [r3_421_JUSTAS] | 1.78 ± 0.038 | 1.4 ± 0.056 | 0.344 ± 0.05
SAGGSAGGSAMEITITVPKENEEEVLEAAKKALEELGIEEVKVEKLEDGTYKVTARVKPGLSAGGSAGGSAG [r3_335_TrROS_Hall] | 0.219 ± 0.14 | 0.361 ± 0.2 | 0.325 ± 0.12
SAGGSAGGSAMIEISEEELEKLLAETPEEEAKEVKIERIPDIGLINVTIPSGKVIKVKIKESAGGSAGGSAG [r3_291_JUSTAS] | 1.43 ± 0.077 | 0.911 ± 0.086 | -0.241 ± 0.11
SAGGSAGGSAMIETTVSFDPSTGTVTTTTTYTDPNGGYTKSSTTVTPVPTPAPPPPAAPNRVSAGGSAGGSA [r18_361_JUSTAS] | 0.582 ± 0.067 | 0.551 ± 0.094 | 0.409 ± 0.029
SAGGSAGGSAMITTPKGERFEVPLRLTPDGRLEVLVVTDRPDDPEVRELAERLARELAERLSAGGSAGGSAG [r3_163_TrMRF] | 0.394 ± 0.17 | 0.484 ± 0.14 | 0.506 ± 0.11
SAGGSAGGSAMIVVPVDLVRERLDELVFRGEDGVEYRAEVRVFEVGDRPVAVIDLRPLDEDGSAGGSAGGSA [r18_447_TrMRF] | 0.994 ± 0.047 | 0.823 ± 0.048 | 0.467 ± 0.025
SAGGSAGGSAMKFPKGAKIEIVVTEDKVYVRIKTPGGKEIEVEMTLEELKKLGFEVEIVEEESAGGSAGGSA [r18_125_TrROS_Hall] | 2.27 ± 0.061 | 2.19 ± 0.15 | 1.75 ± 0.086
SAGGSAGGSAMKIELTVPPGEEAELEARAKALAEAEGVEVVSVSKSPEGTYTMTVLNTVPPESAGGSAGGSA [r18_351_JUSTAS] | -0.164 ± 0.19 | 0.317 ± 0.098 | 0.532 ± 0.058
SAGGSAGGSAMKIVEWNEETGELTIELPDGTKITLKVENGEITEVKVEPLPPVPPDLPELKSAGGSAGGSAG [r3_406_TrROS_Hall] | 2.45 ± 0.16 | 2.24 ± 0.24 | 0.537 ± 0.15
SAGGSAGGSAMKIVKIEVVENEDGEKYVKIEIELENGEKIEITLPLEELENMSLEELLKLLKSAGGSAGGSA [r18_129_TrROS_Hall] | 3.94 ± 0.17 | 3.68 ± 0.12 | 2.94 ± 0.18
SAGGSAGGSAMKIVKITTTQLPNGTTKVTVTFSDGSTKTVTIPPNQPGKSAEEVAKKVLLESAGGSAGGSAG [r3_368_JUSTAS] | 3.37 ± 0.054 | 2.96 ± 0.087 | 1.8 ± 0.055
SAGGSAGGSAMKPGEVIEIEITDKETGKKIKAEIVLKDGKLYIKIYNENGELIAEIEIEIKDSAGGSAGGSA [r18_264_TrROS_Hall] | 3.4 ± 0.12 | 3.42 ± 0.14 | 2.83 ± 0.2
SAGGSAGGSAMKTYTLEQIEELLKSLPEEEIEEVKIEEKEGKKVIYVKTKDGREIEIVVEPSAGGSAGGSAG [r3_291_TrROS_Hall] | 3.19 ± 0.052 | 2.98 ± 0.13 | 2.86 ± 0.2
